Experimental data from the FLAb antibody collection (doi:10.1101/2023.12.08.570889).
Changes are numbered by the printed parent chain.

B1: unnamed (protein)
chain 1: QVQLVQSGAEVKKPGASVKVSCKASGYSFTSSWIHWVKQAPGQGLEWMGEINPGNVRTNYNENFRNKVTMTVDTSISTAYMELSRLRSDDTAVYYCTRVVYGEPYFDYWGQGTLVTVSS
chain 2: QIVLTQSPGTLSLSPGERATMTCTASSSVSSSYFHWYQQKPGQAPRLWIYRTSRLASGVPDRFSGSGSGTDFTLTISRLEPEDAATYYCHQFHRSPLTFGAGTKLEIK
B2: unnamed (protein)
chain 1: B1 chain 1 with V99M, V100R, Y105W
chain 2: B1 chain 2
B3: unnamed (protein)
chain 1: B1 chain 1 with N52Y, V56S, R57N, V99L, V100R
chain 2: B1 chain 2
B4: unnamed (protein)
chain 1: B1 chain 1 with S32N, N52Y, V56S, R57N, V100R, Y105W
chain 2: B1 chain 2
B5: unnamed (protein)
chain 1: B1 chain 1 with S28T, S32N, N52Y, V56S, R57N, V100R, Y105W
chain 2: B1 chain 2
B6: unnamed (protein)
chain 1: B1 chain 1 with S28T, N52Y, V56S, R57N, V99S, V100R, Y105W
chain 2: B1 chain 2
B7: unnamed (protein)
chain 1: B1 chain 1 with S28T, N52K, V56S, R57N, V100S
chain 2: B1 chain 2
B8: unnamed (protein)
chain 1: B1 chain 1 with S28T, S32N, N52Y, V56S, R57N, V100K
chain 2: B1 chain 2
B9: unnamed (protein)
chain 1: B1 chain 1 with S28T, S32N, N52Y, V56S, R57N, V100R, Y101F, Y105W
chain 2: B1 chain 2
B10: unnamed (protein)
chain 1: B1 chain 1 with S28T, N52Y, V56S, R57N, V99S, V100R
chain 2: B1 chain 2
B11: unnamed (protein)
chain 1: B1 chain 1 with S28T, S32N, N52Y, V56S, R57N, V100S
chain 2: B1 chain 2
B12: unnamed (protein)
chain 1: B1 chain 1 with S28T, N52Y, V56S, R57N, V100R, Y101F
chain 2: B1 chain 2
B13: unnamed (protein)
chain 1: B1 chain 1 with S28T, S32A, N52Y, V56S, R57N, V100R
chain 2: B1 chain 2
B14: unnamed (protein)
chain 1: B1 chain 1 with S28T, S32N, N52Y, V56S, R57N, V100R, E103Y
chain 2: B1 chain 2
B15: unnamed (protein)
chain 1: B1 chain 1 with N52Y, V56S, R57N, V100R
chain 2: B1 chain 2
B16: unnamed (protein)
chain 1: B1 chain 1 with S28T, S32N, N52Y, V56S, R57N, V100R
chain 2: B1 chain 2
B17: unnamed (protein)
chain 1: B1 chain 1 with S28T, N52Y, V56S, R57N, V100Q
chain 2: B1 chain 2
B18: unnamed (protein)
chain 1: B1 chain 1 with N52Y, V56S, R57N, V100Q
chain 2: B1 chain 2
B19: unnamed (protein)
chain 1: EVQLVQSGAEVKKPGESLRISCKGSGYSFSTYWISWVRQMPGKGLEWMGKIYPGDSYTNYSPSFQGQVTISADKSISTAYLQWSSLKASDTAMYYCSRGSGIFDYWGQGTLVTVSS
chain 2: SYELTQPPSVSVSPGQTASITCSGDNIGDQYAHWYQQKPGQSPVLVIYQDKNRPSGIPERFSGSNSGNTATLTISGTQAMDEADYYCATYTGFGSLAVFGGGTKLTVL

Legend:
[1] = biological target: IL36R; assay: Kd (SPR)
[2] = biological target: TNFRSF9, Q07011; assay: Kd (SPR)

| Binder | Kd [1] [nM] | Kd [2] [nM] |
| --- | --- | --- |
| B1 | 0.649 |  |
| B2 | 68.3 |  |
| B3 | 6.22 |  |
| B4 | 3.35 |  |
| B5 | 31.8 |  |
| B6 | 157 |  |
| B7 | 138 |  |
| B8 | 54.3 |  |
| B9 | 46.1 |  |
| B10 | 38.2 |  |
| B11 | 11 |  |
| B12 | 1.03 |  |
| B13 | 0.757 |  |
| B14 | 1.35 |  |
| B15 | 0.933 |  |
| B16 | 14.6 |  |
| B17 | 2.76 |  |
| B18 | 1.16 |  |
| B19 |  | 295 |
